The values that follow come from paper doi:10.1101/2023.08.14.553221 (bioRxiv, 2023).

The target in assay [1] is T1, Fibronectin (FN), full-length, isolated from human plasma (human, UniProt P02751-1). Description: cross-linking.
Assay [2] addresses T1, Fibronectin (FN), full-length, isolated …. Description: microplate protein-binding assay.
For assay [3] the target is unchanged. Description: FN-fiber stretch assay.

B1: human tissue transglutaminase (hrTG2, recombinantly produced in E.coli) (enzyme)
chain: MAEELVLERCDLELETNGRDHHTADLCREKLVVRRGQPFWLTLHFEGRNYEASVDSLTFSVVTGPAPSQEAGTKARFPLRDAVEEGDWTATVVDQQDCTLSLQLTTPANAPIGLYRLSLEASTGYQGSSFVLGHFILLFNAWCPADAVYLDSEEERQEYVLTQQGFIYQGSAKFIKNIPWNFGQFEDGILDICLILLDVNPKFLKNAGRDCSRRSSPVYVGRVVSGMVNCNDDQGVLLGRWDNNYGDGVSPMSWIGSVDILRRWKNHGCQRVKYGQCWVFAAVACTVLRCLGIPTRVVTNYNSAHDQNSNLLIEYFRNEFGEIQGDKSEMIWNFHCWVESWMTRPDLQPGYEGWQALDPTPQEKSEGTYCCGPVPVRAIKEGDLSTKYDAPFVFAEVNADVVDWIQQDDGSVHKSINRSLIVGLKISTKSVGRDEREDITHTYKYPEGSSEEREAFTRANHLNKLAEKEETGMAMRIRVGQSMNMGSDFDVFAHITNNTAEEYVCRLLLCARTVSYNGILGPECGTKYLLNLNLEPFSEKSVPLCILYEKYRDCLTESNLIKVRALLVEPVINSYLLAERDLYLENPEIKIRILGEPKQKRKLVAEVSLQNPLPVALEGCTFTVEGAGLTEEQKTVEIPDPVEAGEEVKVRMDLLPLHMGLHKLVVNFESDKLKAVKGFRNVIIGPA
modifications: Alexa Fluor 647 on primary amines (fiber stretch assay)
As for B1, the binding result in assay [1] is given as “binds”.

B2: short human tissue transglutaminase, aa 1-465 (short hrTG2, barrel 1 and 2 deletion mutant) (domain or fragment)
chain: MAEELVLERCDLELETNGRDHHTADLCREKLVVRRGQPFWLTLHFEGRNYEASVDSLTFSVVTGPAPSQEAGTKARFPLRDAVEEGDWTATVVDQQDCTLSLQLTTPANAPIGLYRLSLEASTGYQGSSFVLGHFILLFNAWCPADAVYLDSEEERQEYVLTQQGFIYQGSAKFIKNIPWNFGQFEDGILDICLILLDVNPKFLKNAGRDCSRRSSPVYVGRVVSGMVNCNDDQGVLLGRWDNNYGDGVSPMSWIGSVDILRRWKNHGCQRVKYGQCWVFAAVACTVLRCLGIPTRVVTNYNSAHDQNSNLLIEYFRNEFGEIQGDKSEMIWNFHCWVESWMTRPDLQPGYEGWQALDPTPQEKSEGTYCCGPVPVRAIKEGDLSTKYDAPFVFAEVNADVVDWIQQDDGSVHKSINRSLIVGLKISTKSVGRDEREDITHTYKYPEGSSEEREAFTRANHLNKL
modifications: Alexa Fluor 647 on primary amines
In the case of B2, in assay [2], the binding result is listed as “binds”.

B3: short human TG2 (aa 1-465) pre-incubated with the irreversible inhibitor Z006 (domain or fragment)
chain: B2 chain
Take B3: the binding result in assay [2] is listed as “binds”.

B4: R1R2 peptide (collagen-mimicking peptide derived from the SFS FN-binding protein of Streptococcus equi) (peptide)
peptide: GLNGENQKEPEQGERGEAGPPLSGLSGNNQGRPSLPGLNGENQKEPEQGERGEAGPP
For the molecule B4, the binding result in assay [3] was “binds”.
